Measured values published in US12099068B2, “Biomarkers for graft-versus-host disease” (Incyte Corporation, priority 2018, dated 2024).

B1: INPPL1 (protein, UniProt O15357 1-1258, looked up)
Phosphatidylinositol …: MASACGAPGPGGALGSQAPSWYHRDLSRAAAEELLARAGRDGSFLVRDSESVAGAFALCVLYQKHVHTYRILPDGEDFLAVQTSQGVPVRRFQTLGELIGLYAQPNQGLVCALLLPVEGEREPDPPDDRDASDGEDEKPPLPPRSGSTSISAPTGPSSPLPAPETPTAPAAESAPNGLSTVSHDYLKGSYGLDLEAVRGGASHLPHLTRTLATSCRRLHSEVDKVLSGLEILSKVFDQQSSPMVTRLLQQQNLPQTGEQELESLVLKLSVLKDFLSGIQKKALKALQDMSSTAPPAPQPSTRKAKTIPVQAFEVKLDVTLGDLTKIGKSQKFTLSVDVEGGRLVLLRRQRDSQEDWTTFTHDRIRQLIKSQRVQNKLGVVFEKEKDRTQRKDFIFVSARKREAFCQLLQLMKNKHSKQDEPDMISVFIGTWNMGSVPPPKNVTSWFTSKGLGKTLDEVTVTIPHDIYVFGTQENSVGDREWLDLLRGGLKELTDLDYRPIAMQSLWNIKVAVLVKPEHENRISHVSTSSVKTGIANTLGNKGAVGVSFMFNGTSFGFVNCHLTSGNEKTARRNQNYLDILRLLSLGDRQLNAFDISLRFTHLFWFGDLNYRLDMDIQEILNYISRKEFEPLLRVDQLNLEREKHKVFLRFSEEEISFPPTYRYERGSRDTYAWHKQKPTGVRTNVPSWCDRILWKSYPETHIICNSYGCTDDIVTSDHSPVFGTFEVGVTSQFISKKGLSKTSDQAYIEFESIEAIVKTASRTKFFIEFYSTCLEEYKKSFENDAQSSDNINFLKVQWSSRQLPTLKPILADIEYLQDQHLLLTVKSMDGYESYGECVVALKSMIGSTAQQFLTFLSHRGEETGNIRGSMKVRVPTERLGTRERLYEWISIDKDEAGAKSKAPSVSRGSQEPRSGSRKPAFTEASCPLSRLFEEPEKPPPTGRPPAPPRAAPREEPLTPRLKPEGAPEPEGVAAPPPKNSFNNPAYYVLEGVPHQLLPPEPPSPARAPVPSATKNKVAITVPAPQLGHHRHPRVGEGSSSDEESGGTLPPPDFPPPPLPDSAIFLPPSLDPLPGPVVRGRGGAEARGPPPPKAHPRPPLPPGPSPASTFLGEVASGDDRSCSVLQMAKTLSEVDYAPAGPARSALLPGPLELQPPRGLPSDYGRPLSFPPPRIRESIQEDLAEEAPCLQGGRASGLGEAGMSAWLRAIGLERYEEGLVHNGWDDLEFLSDITEEDLEEAGVQDPAHKRLLLDTLQLSK
B2: ERBB2IP (protein, UniProt Q96RT1 1-1412, looked up)
Erbin: MTTKRSLFVRLVPCRCLRGEEETVTTLDYSHCSLEQVPKEIFTFEKTLEELYLDANQIEELPKQLFNCQSLHKLSLPDNDLTTLPASIANLINLRELDVSKNGIQEFPENIKNCKVLTIVEASVNPISKLPDGFSQLLNLTQLYLNDAFLEFLPANFGRLTKLQILELRENQLKMLPKTMNRLTQLERLDLGSNEFTEVPEVLEQLSGLKEFWMDANRLTFIPGFIGSLKQLTYLDVSKNNIEMVEEGISTCENLQDLLLSSNSLQQLPETIGSLKNITTLKIDENQLMYLPDSIGGLISVEELDCSFNEVEALPSSIGQLTNLRTFAADHNYLQQLPPEIGSWKNITVLFLHSNKLETLPEEMGDMQKLKVINLSDNRLKNLPFSFTKLQQLTAMWLSDNQSKPLIPLQKETDSETQKMVLTNYMFPQQPRTEDVMFISDNESFNPSLWEEQRKQRAQVAFECDEDKDEREAPPREGNLKRYPTPYPDELKNMVKTVQTIVHRLKDEETNEDSGRDLKPHEDQQDINKDVGVKTSESTTTVKSKVDEREKYMIGNSVQKISEPEAEISPGSLPVTANMKASENLKHIVNHDDVFEESEELSSDEEMKMAEMRPPLIETSINQPKVVALSNNKKDDTKETDSLSDEVTHNSNQNNSNCSSPSRMSDSVSLNTDSSQDTSLCSPVKQTHIDINSKIRQEDENFNSLLQNGDILNSSTEEKFKAHDKKDFNLPEYDLNVEERLVLIEKSVDSTATADDTHKLDHINMNLNKLITNDTFQPEIMERSKTQDIVLGTSFLSINSKEETEHLENGNKYPNLESVNKVNGHSEETSQSPNRTEPHDSDCSVDLGISKSTEDLSPQKSGPVGSVVKSHSITNMEIGGLKIYDILSDNGPQQPSTTVKITSAVDGKNIVRSKSATLLYDQPLQVFTGSSSSSDLISGTKAIFKFDSNHNPEEPNIIRGPTSGPQSAPQIYGPPQYNIQYSSSAAVKDTLWHSKQNPQIDHASFPPQLLPRSESTENQSYAKHSANMNFSNHNNVRANTAYHLHQRLGPARHGEMWAISPNDRLIPAVTRSTIQRQSSVSSTASVNLGDPGSTRRAQIPEGDYLSYREFHSAGRTPPMMPGSQRPLSARTYSIDGPNASRPQSARPSINEIPERTMSVSDFNYSRTSPSKRPNARVGSEHSLLDPPGKSKVPRDWREQVLRHIEAKKLEKKHPQTSSSGDPCQDGIFISGQQNYSSATLSHKDVPPDSLMKMPLSNGQMGQPLRPQANYSQIHHPPQASVARHPSREQLIDYLMLKVAHQPPYTQPHCSPRQGHELAKQEIRVRVEKDPELGFSISGGVGGRGNPFRPDDDGIFVTRVQPEGPASKLLQPGDKIIQANGYSFINIEHGQAVSLLKTFQNTVELIIVREVSS
B3: VEGFD (protein, UniProt O43915 89-205, looked up)
Vascular endothelial growth …: FAATFYDIETLKVIDEEWQRTQCSPRETCVEVASELGKSTNTFFKPPCVNVFRCGGCCNEESLICMNTSTSYISKQLFEISVPLTSVPELVPVKVANHTGCKCLPTAPRHPYSIIRR
B4: KLRD1 (protein, UniProt Q13241 1-179, looked up)
Natural killer cells antigen …: MAVFKTTLWRLISGTLGIICLSLMSTLGILLKNSFTKLSIEPAFTPGPNIELQKDSDCCSCQEKWVGYRCNCYFISSEQKTWNESRHLCASQKSSLLQLQNTDELDFMSSSQQFYWIGLSYSEEHTAWLWENGSALSQYLFPSFETFNTKNCIAYNPNGNALDESCEDKNRYICKQQLI
B5: CD177 (protein, UniProt Q8N6Q3 22-408, looked up)
CD177 antigen: LLCQFGTVQHVWKVSDLPRQWTPKNTSCDSGLGCQDTLMLIESGPQVSLVLSKGCTEAKDQEPRVTEHRMGPGLSLISYTFVCRQEDFCNNLVNSLPLWAPQPPADPGSLRCPVCLSMEGCLEGTTEEICPKGTTHCYDGLLRLRGGGIFSNLRVQGCMPQPGCNLLNGTQEIGPVGMTENCNRKDFLTCHRGTTIMTHGNLAQEPTDWTTSNTEMCEVGQVCQETLLLLDVGLTSTLVGTKGCSTVGAQNSQKTTIHSAPPGVLVASYTHFCSSDLCNSASSSSVLLNSLPPQAAPVPGDRQCPTCVQPLGTCSSGSPRMTCPRGATHCYDGYIHLSGGGLSTKMSIQGCVAQPSSFLLNHTRQIGIFSAREKRDVQPPASQHEGG
B6: SKAP1 (protein, UniProt Q86WV1 1-359, looked up)
Src kinase-associated …: MQAAALPEEIRWLLEDAEEFLAEGLRNENLSAVARDHRDHILRGFQQIKARYYWDFQPQGGDIGQDSSDDNHSGTLGLSLTSDAPFLSDYQDEGMEDIVKGAQELDNVIKQGYLEKKSKDHSFFGSEWQKRWCVVSRGLFYYYANEKSKQPKGTFLIKGYGVRMAPHLRRDSKKESCFELTSQDRRSYEFTATSPAEARDWVDQISFLLKDLSSLTIPYEEDEEEEEKEETYDDIDGFDSPSCGSQCRPTILPGSVGIKEPTEEKEEEDIYEVLPDEEHDLEEDESGTRRKGVDYASYYQGLWDCHGDQPDELSFQRGDLIRILSKEYNMYGWWVGELNSLVGIVPKEYLTTAFEVEER
B7: FCRL5 (protein, UniProt Q96RD9 16-977, looked up)
Fc receptor-like protein 5: QFARTPRPIIFLQPPWTTVFQGERVTLTCKGFRFYSPQKTKWYHRYLGKEILRETPDNILEVQESGEYRCQAQGSPLSSPVHLDFSSASLILQAPLSVFEGDSVVLRCRAKAEVTLNNTIYKNDNVLAFLNKRTDFHIPHACLKDNGAYRCTGYKESCCPVSSNTVKIQVQEPFTRPVLRASSFQPISGNPVTLTCETQLSLERSDVPLRFRFFRDDQTLGLGWSLSPNFQITAMWSKDSGFYWCKAATMPYSVISDSPRSWIQVQIPASHPVLTLSPEKALNFEGTKVTLHCETQEDSLRTLYRFYHEGVPLRHKSVRCERGASISFSLTTENSGNYYCTADNGLGAKPSKAVSLSVTVPVSHPVLNLSSPEDLIFEGAKVTLHCEAQRGSLPILYQFHHEGAALERRSANSAGGVAISFSLTAEHSGNYYCTADNGFGPQRSKAVSLSVTVPVSHPVLTLSSAEALTFEGATVTLHCEVQRGSPQILYQFYHEDMPLWSSSTPSVGRVSFSFSLTEGHSGNYYCTADNGFGPQRSEVVSLFVTVPVSRPILTLRVPRAQAVVGDLLELHCEAPRGSPPILYWFYHEDVTLGSSSAPSGGEASFNLSLTAEHSGNYSCEANNGLVAQHSDTISLSVIVPVSRPILTFRAPRAQAVVGDLLELHCEALRGSSPILYWFYHEDVTLGKISAPSGGGASFNLSLTTEHSGIYSCEADNGLEAQRSEMVTLKVAVPVSRPVLTLRAPGTHAAVGDLLELHCEALRGSPLILYRFFHEDVTLGNRSSPSGGASLNLSLTAEHSGNYSCEADNGLGAQRSETVTLYITGLTANRSGPFATGVAGGLLSIAGLAAGALLLYCWLSRKAGRKPASDPARSPSDSDSQEPTYHNVPAWEELQPVYTNANPRGENVVYSEVRIIQEKKKHAVASDPRHLRNKGSPIIYSEVKVASTPVSGSLFLASSAPHR
B8: TMPRSS15 (protein, UniProt P98073 2-784; P98073 785-1019, looked up)
Enteropeptidase non-catalytic …: GSKRGISSRHHSLSSYEIMFAALFAILVVLCAGLIAVSCLTIKESQRGAALGQSHEARATFKITSGVTYNPNLQDKLSVDFKVLAFDLQQMIDEIFLSSNLKNEYKNSRVLQFENGSIIVVFDLFFAQWVSDENVKEELIQGLEANKSSQLVTFHIDLNSVDILDKLTTTSHLATPGNVSIECLPGSSPCTDALTCIKADLFCDGEVNCPDGSDEDNKMCATVCDGRFLLTGSSGSFQATHYPKPSETSVVCQWIIRVNQGLSIKLSFDDFNTYYTDILDIYEGVGSSKILRASIWETNPGTIRIFSNQVTATFLIESDESDYVGFNATYTAFNSSELNNYEKINCNFEDGFCFWVQDLNDDNEWERIQGSTFSPFTGPNFDHTFGNASGFYISTPTGPGGRQERVGLLSLPLDPTLEPACLSFWYHMYGENVHKLSINISNDQNMEKTVFQKEGNYGDNWNYGQVTLNETVKFKVAFNAFKNKILSDIALDDISLTYGICNGSLYPEPTLVPTPPPELPTDCGGPFELWEPNTTFSSTNFPNSYPNLAFCVWILNAQKGKNIQLHFQEFDLENINDVVEIRDGEEADSLLLAVYTGPGPVKDVFSTTNRMTVLLITNDVLARGGFKANFTTGYHLGIPEPCKADHFQCKNGECVPLVNLCDGHLHCEDGSDEADCVRFFNGTTNNNGLVRFRIQSIWHTACAENWTTQISNDVCQLLGLGSGNSSKPIFPTDGGPFVKLNTAPDGHLILTPSQQCLQDSLIRLQCNHKSCGKKLAAQDITPK
Enteropeptidase catalytic …: IVGGSNAKEGAWPWVVGLYYGGRLLCGASLVSSDWLVSAAHCVYGRNLEPSKWTAILGLHMKSNLTSPQTVPRLIDEIVINPHYNRRRKDNDIAMMHLEFKVNYTDYIQPICLPEENQVFPPGRNCSIAGWGTVVYQGTTANILQEADVPLLSNERCQQQMPEYNITENMICAGYEEGGIDSCQGDSGGPLMCQENNRWFLAGVTSFGYKCALPNRPGVYARVSRFTEWIQSFLH

Tested on: plasma proteins
Experiment: Plasma proteins modulated between baseline and day 28 in responders (CR, VGPR, PR; n = 19), Example 6 (Table 13)
Format: in vivo, human
Details: plasma protein (OLINK NPX); responders (CR, VGPR, PR; n = 19); itacitinib 200 mg or 300 mg QD with corticosteroids; day 28 vs baseline
Method in brief: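 Longitudinal comparison, day 28 versus baseline, with steroid-naive (N=10) and steroid-refractory (N=18) patients combined. Proteins measured by OLINK proximity extension, log2 normalized protein expression. Differences tested by t tests, ANOVA, Pearson correlation, P<0.05 significant.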

Molecule | Fold Change, Decreased Expression from Baseline to Day 28 | Fold Change, Increased Expression from Baseline to Day 28
B1 | −1.7131 | –
B2 | −1.7337 | –
B3 | – | 1.147
B4 | −1.8117 | –
B5 | −1.768 | –
B6 | −1.8075 | –
B7 | −1.3113 | –
B8 | – | 3.0633
